Laboratory results reported in article PMC4041364.

T1: Granzyme A (GzmA) (human, UniProt P12544 29-262)
T1 sequence: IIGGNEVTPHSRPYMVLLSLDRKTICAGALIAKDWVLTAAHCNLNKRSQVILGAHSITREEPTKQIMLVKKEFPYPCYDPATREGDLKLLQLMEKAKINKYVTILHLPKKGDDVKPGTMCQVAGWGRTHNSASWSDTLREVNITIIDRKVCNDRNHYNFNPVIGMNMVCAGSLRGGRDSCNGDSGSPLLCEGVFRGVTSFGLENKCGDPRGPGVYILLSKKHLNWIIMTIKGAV

T2: Cathepsin G (CATG) (human, UniProt P08311 21-244)
T2 sequence: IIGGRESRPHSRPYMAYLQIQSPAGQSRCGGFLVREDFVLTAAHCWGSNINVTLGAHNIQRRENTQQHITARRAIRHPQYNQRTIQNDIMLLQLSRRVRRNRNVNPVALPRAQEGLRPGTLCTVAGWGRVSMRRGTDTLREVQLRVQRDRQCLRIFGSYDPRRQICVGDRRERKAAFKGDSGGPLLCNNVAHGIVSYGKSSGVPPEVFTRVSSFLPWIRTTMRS


Tests used:
[1] = target: T1, Granzyme A (GzmA); experiment: fluorescence polarization
[2] = target: T3, Granzyme B (GzmB) (human, UniProt P10144 21-247); experiment: fluorescence polarization
T3 sequence (P10144 21-247): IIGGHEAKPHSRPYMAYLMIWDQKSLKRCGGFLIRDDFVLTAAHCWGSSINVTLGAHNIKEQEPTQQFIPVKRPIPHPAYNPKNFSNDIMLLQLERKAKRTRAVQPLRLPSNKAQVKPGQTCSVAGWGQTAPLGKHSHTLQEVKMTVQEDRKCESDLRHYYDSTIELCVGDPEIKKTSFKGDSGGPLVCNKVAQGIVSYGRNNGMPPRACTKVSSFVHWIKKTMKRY

[3] = target: HuR (human antigen R) (UniProt Q15717 1-326); experiment: fluorescence polarization
HuR (human antigen R), sequence (Q15717 whole entry): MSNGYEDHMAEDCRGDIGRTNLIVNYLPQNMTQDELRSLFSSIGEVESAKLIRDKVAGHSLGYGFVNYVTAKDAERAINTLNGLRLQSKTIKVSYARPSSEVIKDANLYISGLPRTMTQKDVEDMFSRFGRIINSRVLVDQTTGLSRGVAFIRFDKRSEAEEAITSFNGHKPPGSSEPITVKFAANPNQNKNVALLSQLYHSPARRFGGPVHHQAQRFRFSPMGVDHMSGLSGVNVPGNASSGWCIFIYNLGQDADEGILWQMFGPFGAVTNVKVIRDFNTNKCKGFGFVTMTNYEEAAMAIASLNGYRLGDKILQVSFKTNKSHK

[4] = target: Histone H1 (UniProt P07305 1-194); experiment: fluorescence polarization
Histone H1, sequence (P07305 whole entry): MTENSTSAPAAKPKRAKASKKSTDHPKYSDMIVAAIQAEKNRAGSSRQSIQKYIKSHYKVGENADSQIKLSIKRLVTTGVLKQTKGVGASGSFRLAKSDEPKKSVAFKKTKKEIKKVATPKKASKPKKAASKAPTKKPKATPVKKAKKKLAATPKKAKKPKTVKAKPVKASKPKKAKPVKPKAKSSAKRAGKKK

[5] = target: T2, Cathepsin G (CATG); experiment: fluorescence polarization
[6] = target: T4, Neutrophil elastase (NE) (human, UniProt P08246 30-267); experiment: fluorescence polarization
T4 sequence (P08246 30-267): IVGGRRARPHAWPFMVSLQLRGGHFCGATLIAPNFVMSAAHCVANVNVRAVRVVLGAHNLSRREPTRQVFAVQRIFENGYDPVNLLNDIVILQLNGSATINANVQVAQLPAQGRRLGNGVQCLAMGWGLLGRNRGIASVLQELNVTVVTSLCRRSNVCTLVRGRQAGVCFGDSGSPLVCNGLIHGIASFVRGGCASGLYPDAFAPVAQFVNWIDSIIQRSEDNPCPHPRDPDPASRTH

[7] = target: Pancreatic elastase (PE) (porcine, UniProt P00772 27-266); experiment: pull-down
Pancreatic elastase (PE), sequence (P00772 27-266): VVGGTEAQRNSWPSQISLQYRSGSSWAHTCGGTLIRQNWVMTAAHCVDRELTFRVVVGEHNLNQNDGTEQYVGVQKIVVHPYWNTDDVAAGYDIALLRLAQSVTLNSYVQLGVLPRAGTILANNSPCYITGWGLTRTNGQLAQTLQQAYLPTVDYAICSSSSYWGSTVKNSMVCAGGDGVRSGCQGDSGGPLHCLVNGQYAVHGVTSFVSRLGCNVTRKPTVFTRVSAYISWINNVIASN

[8] = target: T1, Granzyme A (GzmA); experiment: pull-down
[9] = target: T2, Cathepsin G (CATG); experiment: pull-down
[10] = target: T3, Granzyme B (GzmB); experiment: pull-down
[11] = target: T4, Neutrophil elastase (NE); experiment: pull-down

Row | Binder | Kd [1] [nM] | Kd [2] [nM] | Kd [3] [nM] | Kd [4] [nM] | Kd [5] [nM] | Kd [6] [nM] | binding result [7] | binding result [8] | binding result [9] | binding result [10] | binding result [11]
1 | UUUUUUUUUUUUUUUUUUUUUUUUUUUUUU (ssRNA) [rU(30)] | 232 | 159 | 121 |  |  |  |  |  |  |  | 
2 | UCUGUGAGUUGAACGCACACAUCACAAAGGA (ssRNA) [BB94 RNA] | 1600 | 480 | 4800 |  |  |  |  |  |  |  | 
3 | TCTGTGAGTTGAACGCACACATCACAAAGGAG (ssDNA) [BB94 ssDNA] | 122 | 35 |  | 10 | 22 | 272 |  |  |  |  | 
4 | BB94 dsDNA (dsDNA) DNA 1: TCTGTGAGTTGAACGCACACATCACAAAGGAG DNA 2: CTCCTTTGTGATGTGTGCGTTCAACTCACAGA | 120 | 161 |  | 9 | 35 | 607 |  |  |  |  | 
5 | TTTTTTTTTTTTTTTTTTTTTTTTTTTTTT (ssDNA) [dT(30)] | 48 | 45 |  |  |  |  |  |  |  |  | 
6 | CCCAAGCUUAUUUAUUUAUUUAUUGCAGGUC (ssRNA) [AU RNA] | 401 | 651 | 492 |  | 165 | 602 |  |  |  |  | 
7 | TTTTTTTTTTTTTTTTTTTTTTTTT (ssDNA) [Oligo(dT)25 beads] |  |  |  |  |  |  | no binding | binds | binds | binds | binds
